Test results: the supplement of paper PMC7877785
± gives the uncertainty stated by the source.

Assay: self-splicing fitness, log relative to wild type (ln ratio); higher = more splicing; Tetrahymena group I intron in knt gene, E. coli kanamycin selection, DiMSum; sequences stand for … in CUCUCU…GGAGGGAAAAGUUAUCAGGCAUGCACCUGGUAGCUAGUCUUUAAACCAAUAGAUUGCAUCGGUUUAAAAGGCAAGACCGUCAAAUUGCGGGAAAGGGGUCAACAGCCGUUCAGUACCAAGUCUCAGGGGAAACUUUGAGAUGGCCUUGCAAAGGGUAUGGUAAUAAGCUGACGGACAUGGUCCUAACCACGCAGCCAAGUCCUAAGUCAACAGAUCUUCUGUUGAUAUGGAUGCAGUUCACAGACUAAAUGUCGGUCGGGGAAGAUGUAUUCUUCUCAUAAGAUAUAGUCGGACCUCUCCUUAAUGGGAGCUAGCGGAUGAAGUGAUGCAACACUGGAGCCGCUGGGAACUAAUUUGUAUGCGAAAGUAUAUUGAUUAGUUUUGGAGUACUCGUGGUCG
In short: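 Colonies from six replicate transformations of E. coli BL21(DE3) were pooled and amplicon-sequenced on an Illumina HiSeq 2500. The library placed an intron with all eight P1ex-region nucleotides randomised inside the knt kanamycin-resistance gene on pET-22b(+), and cells grew overnight at 37°C or 30°C on LB agar with or without 25 μg/mL kanamycin (plus 100 μg/mL carbenicillin, 50 μM IPTG, 0.2% rhamnose). Fitness is the DiMSum error-weighted combination of wild-type-normalised replicate fold changes, kanamycin versus none.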

Sequence | self-splicing fitness (ln) (30 °C) | self-splicing fitness (ln) (37 °C)
CAGGAGCAAUAUUACGCGGC | -1.43 ± 0.36 | -1.14 ± 0.41
CAGGAGCAAUAUUACGCUUU | -3.59 ± 0.22 | -1.81 ± 0.17
CAGGAGCAAUAUUACGGCGA | -2.73 ± 0.29 | -3.49 ± 0.29
CAGGAGCAAUAUUACGGGGU | -3.38 ± 0.23 | -2.19 ± 0.24
CAGGAGCAAUAUUACGGUUA | -3.1 ± 0.37 | -3.41 ± 0.4
CAGGAGCAAUAUUACGUAGC | – | -2.7 ± 0.36
CAGGAGCAAUAUUACGUCUA | -1.43 ± 0.13 | -1.68 ± 0.14
CAGGAGCAAUAUUACGUGAC | -2.45 ± 0.19 | –
CAGGAGCAAUAUUACGUUUG | -3.14 ± 0.14 | -1.43 ± 0.14
CAGUAGCAAUAUUACGAAUC | -3.49 ± 0.33 | –
CAGUAGCAAUAUUACGAGCC | -3.88 ± 0.37 | -3.14 ± 0.47
CAGUAGCAAUAUUACGAGGA | -3.13 ± 0.24 | -1.77 ± 0.2
CAGUAGCAAUAUUACGAGGC | -3.19 ± 0.17 | -2.94 ± 0.3
CAGUAGCAAUAUUACGAGUC | -4.27 ± 0.27 | -2.36 ± 0.17
CAGUAGCAAUAUUACGAUUU | -2.52 ± 0.19 | -1.45 ± 0.17
CAGUAGCAAUAUUACGCAUC | – | -1.82 ± 0.26
CAGUAGCAAUAUUACGCCGG | -0.444 ± 0.21 | -0.309 ± 0.28
CAGUAGCAAUAUUACGCGCG | -0.327 ± 0.16 | 0.324 ± 0.18
CAGUAGCAAUAUUACGCGGC | -2.92 ± 0.32 | -2.14 ± 0.5
CAGUAGCAAUAUUACGCGGU | -2.74 ± 0.12 | -2.94 ± 0.19
CAGUAGCAAUAUUACGCUAC | -4.2 ± 0.3 | -2.7 ± 0.23
CAGUAGCAAUAUUACGCUUC | -3.45 ± 0.3 | -2.74 ± 0.28
CAGUAGCAAUAUUACGGAGC | – | -1.75 ± 0.33
CAGUAGCAAUAUUACGGCAG | -0.259 ± 0.073 | 0.0185 ± 0.1
CAGUAGCAAUAUUACGGCCG | -0.034 ± 0.13 | 0.348 ± 0.2
CAGUAGCAAUAUUACGGGAC | -4.57 ± 0.28 | -3.56 ± 0.2

Sequence | self-splicing fitness (ln) (30 °C) | self-splicing fitness (ln) (37 °C)
CAGUAGCAAUAUUACGGGGC | -2.54 ± 0.15 | -2.55 ± 0.23
CAGUAGCAAUAUUACGGUAA | -3.19 ± 0.31 | -1.57 ± 0.22
CAGUAGCAAUAUUACGUCCU | -3.2 ± 0.18 | -1.43 ± 0.14
CAGUAGCAAUAUUACGUGGU | -2.56 ± 0.13 | -2.54 ± 0.17
CAGUAGCAAUAUUACGUUUG | -1.35 ± 0.08 | -0.625 ± 0.11
CAUAAGCAAUAUUACGAAUU | -3.44 ± 0.27 | -1.52 ± 0.22
CAUAAGCAAUAUUACGACAC | -2.18 ± 0.15 | -2.12 ± 0.27
CAUAAGCAAUAUUACGACCA | – | -2.1 ± 0.36
CAUAAGCAAUAUUACGACUU | -3.55 ± 0.24 | -1.5 ± 0.16
CAUAAGCAAUAUUACGAGAU | -3.53 ± 0.15 | -3.51 ± 0.23
CAUAAGCAAUAUUACGAUAU | -3.41 ± 0.28 | -2.86 ± 0.32
CAUAAGCAAUAUUACGGAAG | -1.43 ± 0.075 | -0.578 ± 0.096
CAUAAGCAAUAUUACGGAGG | -2.3 ± 0.11 | -0.959 ± 0.13
CAUAAGCAAUAUUACGUAUU | -3.24 ± 0.19 | -3.09 ± 0.19
CAUAAGCAAUAUUACGUCAA | -3.33 ± 0.27 | -2.61 ± 0.3
CAUAAGCAAUAUUACGUCCA | -3.32 ± 0.33 | -1.87 ± 0.22
CAUAAGCAAUAUUACGUCGA | -3.41 ± 0.26 | -2.86 ± 0.17
CAUAAGCAAUAUUACGUCUG | -0.477 ± 0.065 | -0.45 ± 0.082
CAUAAGCAAUAUUACGUCUU | -3.71 ± 0.17 | -2.41 ± 0.19
CAUCAGCAAUAUUACGAAAG | -0.638 ± 0.065 | -0.249 ± 0.087
CAUCAGCAAUAUUACGAAGG | -0.555 ± 0.048 | -0.58 ± 0.066
CAUCAGCAAUAUUACGAAUC | -1.97 ± 0.13 | -1.25 ± 0.12
CAUCAGCAAUAUUACGACAC | -1.78 ± 0.21 | -3.05 ± 0.37
CAUCAGCAAUAUUACGACAG | 0.0306 ± 0.087 | 0.00869 ± 0.13
CAUCAGCAAUAUUACGACUC | -1.82 ± 0.26 | -0.687 ± 0.23
CAUCAGCAAUAUUACGAGUG | -2.26 ± 0.11 | -0.515 ± 0.1

Sequence | self-splicing fitness (ln) (30 °C) | self-splicing fitness (ln) (37 °C)
CAUCAGCAAUAUUACGAGUU | -4.08 ± 0.19 | -2.53 ± 0.12
CAUCAGCAAUAUUACGAUAA | -1.46 ± 0.092 | -0.079 ± 0.088
CAUCAGCAAUAUUACGAUAC | -2.95 ± 0.16 | -1.75 ± 0.16
CAUCAGCAAUAUUACGCAAA | -2.39 ± 0.15 | -2.48 ± 0.21
CAUCAGCAAUAUUACGGAGA | -1.78 ± 0.14 | -1.3 ± 0.12
CAUCAGCAAUAUUACGGAGU | -2.65 ± 0.12 | -0.842 ± 0.11
CAUCAGCAAUAUUACGGAUC | -1.79 ± 0.088 | 0.216 ± 0.11
CAUCAGCAAUAUUACGGCAA | -3.37 ± 0.21 | -2.1 ± 0.2
CAUCAGCAAUAUUACGGGAG | -0.766 ± 0.054 | -0.2 ± 0.075
CAUCAGCAAUAUUACGGUAU | -2.95 ± 0.13 | -1.13 ± 0.14
CAUCAGCAAUAUUACGUAUA | -1.68 ± 0.095 | -0.354 ± 0.11
CAUCAGCAAUAUUACGUCAU | -3.06 ± 0.1 | -1.78 ± 0.12
CAUCAGCAAUAUUACGUCUC | -3.16 ± 0.19 | -1.75 ± 0.17
CAUCAGCAAUAUUACGUGUG | -2.72 ± 0.092 | -1.38 ± 0.08
CAUCAGCAAUAUUACGUUAU | -3.34 ± 0.12 | -2.02 ± 0.11
CAUCAGCAAUAUUACGUUGG | -1.58 ± 0.059 | -0.639 ± 0.067
CAUGAGCAAUAUUACGACCG | -0.701 ± 0.12 | 0.276 ± 0.14
CAUGAGCAAUAUUACGACGA | -2.3 ± 0.3 | -1.85 ± 0.21
CAUGAGCAAUAUUACGAGCG | -0.045 ± 0.092 | 0.443 ± 0.11
CAUGAGCAAUAUUACGAUGA | -3.5 ± 0.2 | -2.48 ± 0.15
CAUGAGCAAUAUUACGAUGG | -1.36 ± 0.1 | -0.83 ± 0.13
CAUGAGCAAUAUUACGAUGU | -2.32 ± 0.19 | -2.72 ± 0.36
CAUGAGCAAUAUUACGGGGA | -3.14 ± 0.19 | -3.03 ± 0.22
CAUGAGCAAUAUUACGGGGC | -4.13 ± 0.43 | -2.35 ± 0.34
CAUGAGCAAUAUUACGGUCA | -2.96 ± 0.2 | -2.57 ± 0.22
CAUGAGCAAUAUUACGGUCU | -3.11 ± 0.28 | -1.2 ± 0.18
